The target of data set [1] is mouse melanocortin 3 receptor (mouse) (UniProt P33033).
The target of data set [2] is mouse melanocortin 5 receptor (mouse) (UniProt P41149).
For data set [3], the target named is mouse melanocortin 4 receptor (mouse) (UniProt P56450).
The nature of data set [4]: Body weight after intrathecal. The class given is in vivo. As to conditions: t = 0, 24 and 48 h; 10 or 15 nmol/mouse IT.
Data set [5] deals with mouse melanocortin 1 receptor (mouse) (UniProt Q01727).
Data set [6] relates to K5-noggin mice. As to conditions: administered intracutaneously; cited from earlier work.
Data set [7] has as its target mMC1R (Mus musculus, UniProt Q01727). Conditions: cited from earlier work.
Data set [8] concerns the target mMC3R (Mus musculus, UniProt P33033). The experiment in a line: AlphaScreen cAMP agonist assay, HEK293 cells stably expressing mMC3R. The data set is classed as cell-based.
Data set [9] concerns MC1R. Conditions: MC1R antagonist; cited from earlier work.
Data set [10] addresses hMC1R. Conditions: read-out: antagonist Ki hMC1R; competitive antagonist; cited from earlier work.
The target in data set [11] is mMC5R (Mus musculus, UniProt P41149). As to conditions: read-out: antagonist Ki mMC5R; cited from earlier work.
Chain of mMC5R (P41149 whole entry): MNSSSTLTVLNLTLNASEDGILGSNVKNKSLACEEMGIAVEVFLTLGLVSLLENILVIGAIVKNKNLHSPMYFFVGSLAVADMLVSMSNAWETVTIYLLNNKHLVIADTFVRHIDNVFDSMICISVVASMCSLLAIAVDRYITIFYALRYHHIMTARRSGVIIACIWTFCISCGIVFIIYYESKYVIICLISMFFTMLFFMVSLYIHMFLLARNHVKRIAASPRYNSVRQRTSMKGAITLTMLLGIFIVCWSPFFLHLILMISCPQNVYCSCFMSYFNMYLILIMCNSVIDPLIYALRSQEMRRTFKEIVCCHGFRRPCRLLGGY

Bridge positions count the residues as written; N and C are the ends. Square brackets hold non-standard residues; d marks the D form. Peptide text beside a SMILES is read from it. dPhe(4-I) = N[C@H](Cc1ccc(I)cc1)C(=O)O; 2Nal = N[C@@H](Cc1ccc2ccccc2c1)C(=O)O; hArg = N=C(N)NCCCC[C@H](N)C(=O)O; Cit = NC(=O)NCCC[C@H](N)C(=O)O; Nle = CCCC[C@H](N)C(=O)O; Orn = NCCC[C@H](N)C(=O)O; Dab = NCC[C@H](N)C(=O)O; Dap = NC[C@H](N)C(=O)O

Chain of mouse melanocortin 5 receptor (mouse) (P41149 whole entry): as above
Chain of mouse melanocortin 3 receptor (mouse) (P33033 whole entry): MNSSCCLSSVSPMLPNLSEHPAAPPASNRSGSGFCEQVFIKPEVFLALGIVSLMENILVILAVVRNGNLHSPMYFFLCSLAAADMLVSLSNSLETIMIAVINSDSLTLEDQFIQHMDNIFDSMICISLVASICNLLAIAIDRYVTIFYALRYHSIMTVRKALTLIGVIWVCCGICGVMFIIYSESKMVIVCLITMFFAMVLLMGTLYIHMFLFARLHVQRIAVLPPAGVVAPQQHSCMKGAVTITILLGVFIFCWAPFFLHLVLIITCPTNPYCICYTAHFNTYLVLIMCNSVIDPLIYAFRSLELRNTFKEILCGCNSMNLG
Chain of mouse melanocortin 4 receptor (mouse) (P56450 whole entry): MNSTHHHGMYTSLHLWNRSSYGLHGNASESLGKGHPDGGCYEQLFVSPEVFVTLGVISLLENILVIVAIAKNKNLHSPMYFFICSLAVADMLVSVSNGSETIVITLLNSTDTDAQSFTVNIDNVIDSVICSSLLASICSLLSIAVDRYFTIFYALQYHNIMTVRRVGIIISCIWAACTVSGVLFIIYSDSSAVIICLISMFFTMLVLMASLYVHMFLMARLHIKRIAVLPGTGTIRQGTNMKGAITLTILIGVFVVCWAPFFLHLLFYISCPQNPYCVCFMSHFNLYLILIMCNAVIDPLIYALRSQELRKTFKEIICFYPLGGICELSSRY
Chain of mouse melanocortin 1 receptor (mouse) (Q01727 whole entry): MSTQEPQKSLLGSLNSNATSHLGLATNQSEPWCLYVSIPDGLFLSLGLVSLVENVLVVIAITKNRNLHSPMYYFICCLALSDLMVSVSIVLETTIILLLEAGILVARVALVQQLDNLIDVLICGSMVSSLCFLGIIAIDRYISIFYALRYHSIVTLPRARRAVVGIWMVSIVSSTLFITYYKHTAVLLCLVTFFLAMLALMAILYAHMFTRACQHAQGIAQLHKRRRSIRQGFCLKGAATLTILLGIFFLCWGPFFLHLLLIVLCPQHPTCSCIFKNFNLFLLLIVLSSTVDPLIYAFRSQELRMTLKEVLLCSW
Chain of mMC1R (Q01727 whole entry): as above
Chain of mMC3R (P33033 whole entry): as the sequence (P33033 whole entry) above

With Ac-[dPhe(4-I)][Cit][2Nal]R-NH2, the agonist EC50, cAMP AlphaScreen on HEK293 cells expressing the receptor in data set [1], in [2] and in data set [3] was more than 100 µM each time.

On to Ac-[dPhe(4-I)]R[2Nal][hArg]-NH2, for which the agonist EC50, cAMP AlphaScreen on HEK293 cells expressing the receptor in data set [1], in [2] and in data set [3] was more than 100 µM in each case.

As to `CC(=O)N[C@H](Cc1ccc(I)cc1)C(=O)N[C@@H](CCCNC(=N)N)C(=O)N[C@@H](Cc1ccc2ccccc2c1)C(=O)N[C@@H](CCCN)C(N)=O` [Peptide 14, Ac-DPhe(pI)-Arg-Nal(2’)-Orn-NH2] (Ac-[dPhe(4-I)]R[2Nal][Orn]-NH2), the “body weights compared to vehicle” value in data set [4] was “not statistically significantly different”.

Take Ac-[dPhe(4-I)]R[2Nal][Orn]-NH2: the agonist EC50, cAMP AlphaScreen on HEK293 cells expressing the receptor in [1], in data set [2] and in data set [3] was more than 100 µM each time.

In the case of Ac-[dPhe(4-I)]R[2Nal][Cit]-NH2, the agonist EC50, cAMP AlphaScreen on HEK293 cells expressing the receptor in [1], in data set [5], in data set [2] and in data set [3] was more than 100 µM in each case.

Consider Ac-[dPhe(4-I)][dK][2Nal]R-NH2, for which the agonist EC50, cAMP AlphaScreen on HEK293 cells expressing the receptor in data set [1], in data set [5], in data set [2] and in data set [3] was more than 100 µM in each case.

Regarding Ac-[dPhe(4-I)]R[2Nal][dR]-NH2, the agonist EC50, cAMP AlphaScreen on HEK293 cells expressing the receptor in data set [1], in [5], in [2] and in data set [3] was more than 100 µM in each case.

One may read the Ki as the dissociation constant of the complex between target and ligand, obtained from inhibition or displacement. On to H-YERFFNAF[Dap]Y-NH2 (lactam 2-9), for which, in data set [6], the “coloration of K5-noggin mice” value is reported as “restored wild-type coloration”. Further, the “pA2 mMC1R” value in [7] was 5.92. The Ki in data set [7] (read-out: antagonist Ki mMC1R) was 1.2 µM.

As to `CC(=O)N[C@H](Cc1ccc(I)cc1)C(=O)N[C@@H](CCCNC(=N)N)C(=O)N[C@@H](Cc1ccc2ccccc2c1)C(=O)N[C@@H](Cc1c[nH]cn1)C(N)=O` [Peptide 12, Ac-DPhe(pI)-Arg-Nal(2’)-His-NH2] (Ac-[dPhe(4-I)]R[2Nal]H-NH2), in [8], the “percent maximal stimulatory response (compared to NDP-MSH) observed at 100 μM, mMC3R” value is reported as 35% @ 100 μM.

For the compound Ac-[dPhe(4-I)]K[2Nal]R-NH2, the agonist EC50, cAMP AlphaScreen on HEK293 cells expressing the receptor in data set [1], in data set [2] and in data set [3] was more than 100 µM throughout.

Regarding Ac-[dPhe(4-I)]R[2Nal][dK]-NH2, the agonist EC50, cAMP AlphaScreen on HEK293 cells expressing the receptor in [1], in data set [5], in data set [2] and in [3] was more than 100 µM each time.

With Ac-[dPhe(4-I)]R[2Nal]R-NH2, the agonist EC50, cAMP AlphaScreen on HEK293 cells expressing the receptor in data set [2] is more than 100 µM.

As to Ac-[dPhe(4-I)]R[2Nal]K-NH2, the agonist EC50, cAMP AlphaScreen on HEK293 cells expressing the receptor in data set [1], in data set [2] and in [3] was more than 100 µM each time.

Ac-[dPhe(4-I)]R[2Nal]E-NH2: the agonist EC50, cAMP AlphaScreen on HEK293 cells expressing the receptor in data set [1], in data set [5], in data set [2] and in data set [3] was more than 100 µM each time.

For Ac-[dPhe(4-I)]R[2Nal]H-NH2, the agonist EC50, cAMP AlphaScreen on HEK293 cells expressing the receptor in data set [2] and in [3] was more than 100 µM in each case.

As to Ac-[Nle]DW[dF][Nle]WK-NH2, the “pA2 in the frog skin assay” value in [9] is 8.4.

Consider Ac-[dPhe(4-I)]E[2Nal]R-NH2, for which the agonist EC50, cAMP AlphaScreen on HEK293 cells expressing the receptor in data set [1], in data set [5], in [2] and in [3] was more than 100 µM in each case.

For the compound “c[Gly-Cpg-DNal(2’)-Arg-Trp-Glu]-Val-Val-Gly-NH2”, the inhibitory constant (Ki) in [10] is 0.053 µM.

In the case of “Ac-Nle-c[Asp-(1-Me)His-DNal(2’)-Arg-DNal(2’)-Lys]-NH2”, the inhibition constant (Ki) in data set [11] was 0.063 µM.

With Ac-[dPhe(4-I)]R[2Nal][Dap]-NH2, the agonist EC50, cAMP AlphaScreen on HEK293 cells expressing the receptor in data set [1], in data set [2] and in data set [3] was more than 100 µM each time.

Take Ac-[dPhe(4-I)]H[2Nal]R-NH2: the agonist EC50, cAMP AlphaScreen on HEK293 cells expressing the receptor in data set [1], in data set [2] and in data set [3] was more than 100 µM throughout.

Regarding Ac-[dPhe(4-I)]R[2Nal][Dab]-NH2, the agonist EC50, cAMP AlphaScreen on HEK293 cells expressing the receptor in data set [1], in [2] and in data set [3] was more than 100 µM throughout.

Values taken from publication PMC10631449 (Journal of medicinal chemistry, 2023).
